This note sets out measurements from patent US20220220218A1 (JIANGSU HENGRUI MEDICINE, published 2022).

Broadly, the Kd is the equilibrium constant for the complex coming apart. In general, koff refers to a measure of how fast the partners let go of each other. The term kon denotes a measure of how fast the partners come together. What is called EC50 is the concentration at which the effect is half-maximal.

In test [1] the target is T1, cynomolgus monkey CD73/NT5E protein (His tag), Sino Biological Cat. No. 90192-C08H (cynomolgus monkey, UniProt A0A2K5V5U7 27-547).
T1 construct: also called cynomolgus monkey CD73 protein; cynoCD73; not shown: His tag
T1 sequence: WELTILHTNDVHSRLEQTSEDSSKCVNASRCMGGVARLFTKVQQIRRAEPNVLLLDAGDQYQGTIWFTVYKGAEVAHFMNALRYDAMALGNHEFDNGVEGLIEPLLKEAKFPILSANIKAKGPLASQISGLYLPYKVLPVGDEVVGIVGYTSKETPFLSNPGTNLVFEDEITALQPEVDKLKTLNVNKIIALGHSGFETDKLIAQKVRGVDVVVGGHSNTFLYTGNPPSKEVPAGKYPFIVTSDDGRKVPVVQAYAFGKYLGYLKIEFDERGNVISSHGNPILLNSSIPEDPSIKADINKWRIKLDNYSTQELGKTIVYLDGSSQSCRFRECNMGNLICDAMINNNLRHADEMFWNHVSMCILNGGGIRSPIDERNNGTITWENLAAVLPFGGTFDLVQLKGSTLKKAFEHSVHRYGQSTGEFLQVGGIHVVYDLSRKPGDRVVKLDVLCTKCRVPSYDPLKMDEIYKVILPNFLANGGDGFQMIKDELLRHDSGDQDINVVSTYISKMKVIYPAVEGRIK
Description: SPR Biacore T200; antibody captured on Protein A chip, cynoCD73 in flow; 1:1 Langmuir. An excerpt:
In this experiment, Biacore instrument was used to determine the affinity of the humanized anti-CD73 antibodies to be tested with human CD73 (huCD73) and monkey CD73 (cynoCD73).
A certain amount of test antibody was affinity-captured with Protein A biosensing chip (Cat. #29127556, GE), and then a certain concentration of human or monkey CD73 antigen was allowed to flow through the surface of the chip. The reaction signals were detected in real time with Biacore instrument (Biacore T200, GE) to generate a binding and dissociation curve. At the end of each cycle, after the dissociation was completed, the biosensor chip was washed and regenerated with Glycine-HCl, pH1.5 (Cat. #BR-1003-54, GE). The running buffer for the assay was 1×HBS-EP buffer solution (Cat. #BR-1001-88, GE).
The data obtained from the experiment was fitted against (1:1) Langmuir model using GE Biacore T200 Evaluation version 3.0 software, and the affinity values were obtained, as shown in Table 12 and Table 13 for details.
(SPR reads the build-up and loss of mass on a sensor chip optically.)

In test [2] the target is T1, cynomolgus monkey CD73/NT5E protein …. Description: ELISA; cynomolgus monkey CD73 coated on plate. On the procedure:
The cross-binding activity of anti-CD73 antibodies to cynomolgus monkey CD73 protein was tested by ELISA assay. The cynomolgus monkey CD73 fusion protein was directly coated onto a 96-well microtiter plate. The signal strength after the addition of the antibody was used to determine the binding activity of the antibody to cynomolgus monkey CD73. The specific experimental procedures were as follows:
Cynomolgus monkey CD73 (Sino Biological, Cat No. 90192-C08H) was diluted with PBS, pH7.4 (Shanghai BasalMedia, Cat No. B320) buffer to a concentration of 2 μg/ml, was added into the 96-well microtiter plate at 50 μl/well, and was incubated in an incubator at 37° C. for 2 hours. The liquid was discarded, 250 μl/well blocking solution (5% skim milk diluted in PBS) was added, and incubated in an incubator at 37° C. for 3 hours or at 4° C. overnight (16-18 hours) for blocking. After the blocking was finished, the blocking solution was discarded, the plate was washed for 5 times with PBST buffer, 50 μl/well of various concentrations of each of the test antibodies (purified hybridoma antibodies or humanized antibodies, diluted with sample diluent) were added, and incubated in an incubator at 37° C. for 1 hour. After the incubation was finished, the plate was washed for 5 times with PBST, 50 μl/well of HRP-labeled goat anti-mouse secondary antibody (Jackson Immuno Research, Cat No. 115-035-003) or goat anti-human secondary antibody (Jackson Immuno Research, Cat No. 109-035-003) diluted with sample diluent was added, and incubated at 37° C. for 1 hour. The plate was washed for 5 times with PBST, 50 μl/well of TMB chromogenic substrate (KPL, Cat No. 52-00-03) was added, incubated at room temperature for 5-10 min, and 50 μl/well of 1M H₂SO₄ was added to stop the reaction. The absorbance value was read by a microplate reader (Molecular Devices, VERSA max) at a wavelength of 450 nm, and the data was analyzed with GraphPad Prism 5. The binding of anti-CD73 antibody to monkey CD73 was calculated as EC50 value.
A general note: ELISA stands for enzyme-linked immunosorbent assay.

Where a chain is given by its changes, count along the chain named.

B1: Hab110.21 (antibody, human IgG1, kappa, V domains shown)
VH: EVQLVQSGAEVKKPGASVKVSCKASGYTFTSYTMHWVRQAPGQRLEWMGYINPNSFYIEYNQKFKDRVTITRDTSASTAYMELSSLRSEDTAVYYCARGDYDLFYDMDNWGQGTTVTVSS
VL: DIQMTQSPSSLSASVGDRVTITCRASQDIGNSLNWLQQKPGKAIKRLIYATFRLDSGVPSRFSGSRSGTEYTLTISSLQPEDFATYYCQQYASFPWTFGGGTKVEIKR
notes: also called humanized antibody of mab110
B1: in test [1], the Kd worked out at 0.0489 nM, the koff amounted to 3.45e-05 s⁻¹ and the association rate constant (kon) was 704000 M⁻¹ s⁻¹. For the same molecule, the midpoint of the response in test [2], the EC50, lay at 0.064 nM.

B2: Hab127.31d (antibody, human IgG1, kappa, V domains shown)
VH: EVQLVQSGAEVKKPGASVKVSCKASGYTFTAYFMNWVRQAPGQGLEWMGRIYHNKGDTFYSQKFKGRVTMTVDKSTSTVYMELSSLRSEDTAVYYCATSYVGDWGQGTTVTVSS
VL: B1 VL with N31D, K42G, I44L, F52S, R53S, R66G, Q89L
notes: also called humanized antibody of mab127
Consider B2, for which, in test [1], binding was put at a Kd of 0.0699 nM, the koff was determined as 1.86e-05 s⁻¹ and the kon is 266000 M⁻¹ s⁻¹. The response in test [2] was half-maximal at 0.033 nM (EC50).

B3: Hab108.64 (antibody, human IgG1, kappa, V domains shown)
VH: EVTLKQSGPGLVKPTETLTLTCTVSGFSLSSYGIQWVRQPPGKGLEWLGVIWSGGSADYNAAFISRLTISKDTSKSQVVLTMTNMDPVDTATYYCAGQYGSVWGQGTLVTVSS
VL: DIQMTQSPSSLSASVGDRVTITCRASQDIGDRLNWLQQKPGGAIKRLIYATSSLDSGVPKRFSGSGSGTEYTLTISSLQPEDFATYYCLQYAGSWTFGGGTKVEIKR
notes: also called humanized antibody of mab108
In test [1], B3 showed a Kd of 0.166 nM, a koff of 4.24e-05 s⁻¹ and a kon of 256000 M⁻¹ s⁻¹. Moreover, the EC50 in test [2] is 0.033 nM.
